Experimental findings from article PMC5080769, “Bacillus subtilis 5′-nucleotidases with various functions and substrate specificities” (BMC Microbiology, 2016) are described below.

For orientation: Km means the substrate concentration at which the rate is half of its maximum.

Common to all, as to assay: phosphate release, molybdate assay, A820
One data set concerns the target T1, AraL (Bacillus subtilis, UniProt P94526).
T1 construct: full-length ORF, C-terminal His6 (pET28b, NdeI/XhoI), expressed in E. coli BL21(DE3), TALON purified
Type of data set: biochemical. To be noted: 10 mM substrate, 12 h, 50 mM Tris-HCl pH 7.8, 10 mM MgCl2, 250 mM KCl, 1 mM NH4Cl, 37 °C.

A further data set addresses T2, YqeG (Bacillus subtilis, UniProt P54452).
T2 construct: gene pgpP; full-length ORF, C-terminal His6 (pET28b, NdeI/HindIII), expressed in E. coli BL21(DE3), TALON purified
Type of data set: biochemical. The settings on record: 10 mM substrate, 12 h, 50 mM Tris-HCl pH 7.8, 10 mM MgCl2, 250 mM KCl, 1 mM NH4Cl, 37 °C.

Substrate in data set [1]: Nc1ccn([C@@H]2O[C@H](COP(=O)(O)O)[C@@H](O)[C@H]2O)c(=O)n1
The data set is classed as biochemical, Bacillus subtilis. To be noted: 50 mM Tris-HCl pH 7.8, 10 mM MgCl2, 250 mM KCl, 1 mM NH4Cl, 37 °C.

Substrate in data set [2]: Nc1nc2c(ncn2[C@@H]2O[C@H](COP(=O)(O)O)[C@@H](O)[C@H]2O)c(=O)[nH]1
The data set is classed as biochemical, Bacillus subtilis. To be noted: 50 mM Tris-HCl pH 7.8, 10 mM MgCl2, 250 mM KCl, 1 mM NH4Cl, 37 °C.

Substrate in data set [3]: Nc1ncnc2c1ncn2[C@@H]1O[C@H](COP(=O)(O)O)[C@@H](O)[C@H]1O
Type of data set: biochemical, Bacillus subtilis. To be noted: 50 mM Tris-HCl pH 7.8, 10 mM MgCl2, 250 mM KCl, 1 mM NH4Cl, 37 °C.

Substrate in data set [4]: O=c1ccn([C@@H]2O[C@H](COP(=O)(O)O)[C@@H](O)[C@H]2O)c(=O)[nH]1
The data set is classed as biochemical, Bacillus subtilis. To be noted: 50 mM Tris-HCl pH 7.8, 10 mM MgCl2, 250 mM KCl, 1 mM NH4Cl, 37 °C.

Substrate in data set [5]: O=P(O)(O)OC(CO)CO
Type of data set: biochemical, Bacillus subtilis. The settings on record: 50 mM Tris-HCl pH 7.8, 10 mM MgCl2, 250 mM KCl, 1 mM NH4Cl, 37 °C.

T2 sequence (P54452 whole entry): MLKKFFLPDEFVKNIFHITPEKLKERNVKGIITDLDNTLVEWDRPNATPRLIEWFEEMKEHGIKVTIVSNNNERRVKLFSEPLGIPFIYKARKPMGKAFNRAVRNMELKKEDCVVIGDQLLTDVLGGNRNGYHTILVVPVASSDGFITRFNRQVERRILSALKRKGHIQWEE
T1 sequence (P94526 whole entry): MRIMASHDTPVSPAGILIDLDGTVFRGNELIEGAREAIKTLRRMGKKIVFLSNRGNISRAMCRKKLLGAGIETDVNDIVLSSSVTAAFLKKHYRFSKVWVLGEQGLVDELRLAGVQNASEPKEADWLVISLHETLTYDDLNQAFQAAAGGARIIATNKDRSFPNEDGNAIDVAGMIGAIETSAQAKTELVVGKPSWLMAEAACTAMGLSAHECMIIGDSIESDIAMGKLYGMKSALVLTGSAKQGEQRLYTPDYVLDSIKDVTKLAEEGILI

In the case of `O=P(O)(O)OC[C@H]1OC(O)[C@H](O)[C@@H](O)[C@@H]1O` (some centres unmarked) [G6P], the “phosphate release, molybdate assay, A820” value was “AraL activity was enhanced particularly against G6P at the higher concentration” at AraL; “YqeG hydrolyzed GMP and G6P only at the higher concentration” on YqeG.

On to `Nc1nc2c(ncn2[C@@H]2O[C@H](COP(=O)(O)O)[C@@H](O)[C@H]2O)c(=O)[nH]1` [GMP], for which the “phosphate release, molybdate assay, A820” value on YqeG was “YqeG hydrolyzed GMP and G6P only at the higher concentration”.

B1: YcsE (Bacillus subtilis subsp. subtilis str. 168) (protein)
chain: MSVQREDVDIKLIAIDMDGTLLNDEQLISDENRKAIREAEDKGVYVVISTGRTLMTCRELAESLKLSSFLITANGSEIWDSNFNLVERKLLHTDHIQMMWDLRNKHNTNFWASTVNKVWRGEFPENITDHEWLKFGFDIEDDDIRNEVLEELRKNKELEITNSSPTNIEVNALGINKAAALAKVTEKLGFTMENVMAMGDSLNDIAMIKEAGLGVAMGNAQDIVKETADYITDTNIEDGVAKAIRHWVL
notes: full-length ORF, C-terminal His6 (pET28b, NdeI/XhoI), expressed in E. coli BL21(DE3), TALON purified
For B1, the Km was determined as 4.7 ± 0.23 mM in data set [1], 10.3 ± 0.12 mM in data set [2], 8.6 ± 0.80 mM in data set [3] and 8.5 ± 0.69 mM in data set [4].

B2: YktC (Bacillus subtilis subsp. subtilis str. 168) (protein)
chain: MTNWTEIDEIAKKWIREAGARITQSMHESLTIETKSNPNDLVTNIDKETEKFFIDRIQETFPGHRILGEEGQGDKIHSLEGVVWIIDPIDGTMNFVHQQRNFAISIGIFENGEGKIGLIYDVVHDELYHAFSGRGAYMNETKLAPLKETVIEEAILAINATWVTENRRIDQSVLAPLVKRVRGTRSYGSAALELANVAAGRIDAYITMRLAPWDYAAGCVLLNEVGGTYTTIEGEPFTFLENHSVLAGNPSIHKTIFEEYLHARK
notes: full-length ORF, C-terminal His6 (pET28b, BamHI/HindIII), expressed in E. coli BL21(DE3), TALON purified
Consider B2, for which the Km amounted to 1.6 ± 0.017 mM in data set [1], 1.9 ± 0.026 mM in data set [2], 0.49 ± 0.035 mM in data set [5] and 2.4 ± 0.052 mM in data set [4].
